From the supplement of paper PMC11246515
± gives the standard deviation of the averaged measurements.

Assay: total protein half-life in vivo (active degradation + dilution); higher = more stable protein
[1] = E. coli NCM3722 delta-clpP delta-lon delta-hslV, growth: N-lim chemostat, doubling time 6 h
[2] = E. coli NCM3722 delta-clpP, growth: N-lim chemostat, doubling time 6 h
[3] = E. coli NCM3722 delta-hslV, growth: N-lim chemostat, doubling time 6 h
[4] = E. coli NCM3722 delta-lon, growth: N-lim chemostat, doubling time 6 h
[5] = E. coli NCM3722 delta-smpB, growth: N-lim chemostat, doubling time 6 h
[6] = wild type E. coli NCM3722, growth: C-lim chemostat, doubling time 3 h
[7] = wild type E. coli NCM3722, growth: C-lim chemostat, doubling time 6 h
[8] = wild type E. coli NCM3722, growth: C-lim chemostat, doubling time 12 h
[9] = wild type E. coli NCM3722, growth: N-lim chemostat, doubling time 6 h
[10] = wild type E. coli NCM3722, growth: N-lim chemostat, doubling time 12 h
[11] = wild type E. coli NCM3722, growth: P-lim chemostat, doubling time 6 h
[12] = wild type E. coli NCM3722, growth: P-lim chemostat, doubling time 12 h

MGRKWANIVAKKTAKDGATSKIYAKFGVEIYAAAKQGEPDPELNTSLKFVIERAKQAQVPKHVIDKAIDKAKGGGDETFVQGRYEGFGPNGSMIIAETLTSNVNRTIANVRTIFNKKGGNIGAAGSVSYMFDNTGVIVFKGTDPDHIFEILLEAEVDVRDVTEEEGNIVIYTEPTDLHKGIAALKAAGITEFSTTELEMIAQSEVELSPEDLEIFEGLVDALEDDDDVQKVYHNVANL [P0A8A2]
total protein half-life in vivo [1]: 5.2 ± 0.11 h
total protein half-life in vivo [2]: 4.981 ± 0.0067 h
total protein half-life in vivo [3]: 4.11 ± 0.057 h
total protein half-life in vivo [4]: 5.18 ± 1 h
total protein half-life in vivo [5]: 4.17 ± 0.56 h
total protein half-life in vivo [6]: 2.95 ± 0.35 h
total protein half-life in vivo [7]: 5.79 ± 1.9 h
total protein half-life in vivo [8]: 9.45 ± 0.47 h
total protein half-life in vivo [9]: 4.55 ± 0.5 h
total protein half-life in vivo [10]: 7.06 ± 0.55 h
total protein half-life in vivo [11]: 5.02 ± 0.079 h
total protein half-life in vivo [12]: 9.37 ± 0.61 h

MDQKQIEEIVRSVMASMGQAAPAPSEAKCATTNCAAPVTSESCALDLGSAEAKAWIGVENPHRADVLTELRRSTVARVCTGRAGPRPRTQALLRFLADHSRSKDTVLKEVPEEWVKAQGLLEVRSEISDKNLYLTRPDMGRRLCAEAVEALKAQCVANPDVQVVISDGLSTDAITVNYEEILPPLMAGLKQAGLKVGTPFFVRYGRVKIEDQIGEILGAKVVILLVGERPGLGQSESLSCYAVYSPRMATTVEADRTCISNIHQGGTPPVEAAAVIVDLAKRMLEQKASGINMTR
total protein half-life in vivo [1]: 5.05 ± 0.91 h
total protein half-life in vivo [2]: 3.65 ± 0.13 h
total protein half-life in vivo [3]: 3.19 ± 0.053 h
total protein half-life in vivo [4]: 4.21 ± 0.95 h
total protein half-life in vivo [5]: 3.11 ± 0.17 h
total protein half-life in vivo [6]: 2.6 ± 0.1 h
total protein half-life in vivo [7]: 5.43 ± 0.85 h
total protein half-life in vivo [8]: 8.48 ± 0.82 h
total protein half-life in vivo [9]: 3.41 ± 0.32 h
total protein half-life in vivo [10]: 4.31 ± 0.15 h
total protein half-life in vivo [11]: 4.69 ± 0.096 h
total protein half-life in vivo [12]: 9.58 ± 0.56 h

MTLTRREFIKHSGIAAGALVVTSAAPLPAWAEEKGGKILTAGRWGAMNVEVKDGKIVSSTGALAKTIPNSLQSTAADQVHTTARIQHPMVRKSYLDNPLQPAKGRGEDTYVQVSWEQALKLIHEQHDRIRKANGPSAIFAGSYGWRSSGVLHKAQTLLQRYMNLAGGYSGHSGDYSTGAAQVIMPHVVGSVEVYEQQTSWPLILENSQVVVLWGMNPLNTLKIAWSSTDEQGLEYFHQLKKSGKPVIAIDPIRSETIEFFDDNATWIAPNMGTDVALMLGIAHTLMTQGKHDKVFLEKYTTGYPQFEEYLTGKSDNTPKSAVWAAEITGVPEAQIVKLAELMAANRTMLMAGWGIQRQQYGEQKHWMLVTLAAMLGQIGTPGGGFGFSYHYSNGGNPTRVGGVLPEMSAAIAGHASEAADDGGMTAIPVARIVDALENPGGKYQHNGKEQTYPNIKMIWWAGGGNFTHHQDTNRLIKAWQKPEMIVVSECYWTAAAKHADIVLPITTSFERNDLTMTGDYSNQHIVPMKQAVAPQFEARNDFDVFADLAELLKPGGKEIYTEGKDEMAWLKFFYDAAQKGARAQRVTMPMFNAFWQQNKLIEMRHSEKNEQYVRYGDFRADPVKNALGTPSGKIEIYSKTLEKFGYKDCPAHPTWLAPDEWKGTADEKQLQLLTAHPAHRLHSQLNYAELRKKYAIADREPITIHTEDAARFGIANGDLVRVWNKRGQILTGAVVTDGIKKGVVCVHEGAWPDLENGLCKNGSANVLTADIPSSQLANACAGNSALVYIEKYTGNAPKLTAFDQPAVQA
total protein half-life in vivo [1]: 5.67 ± 0.3 h
total protein half-life in vivo [4]: 5.13 h
total protein half-life in vivo [7]: 4.75 ± 0.64 h
total protein half-life in vivo [8]: 11.5 ± 6.1 h
total protein half-life in vivo [10]: 8.13 h

MLLEQGWLVGARRVPSPHYDCRPDDETPTLLVVHNISLPPGEFGGPWIDALFTGTIDPQAHPFFAEIAHLRVSAHCLIRRDGEIVQYVPFDKRAWHAGVSQYQGRERCNDFSIGIELEGTDTLAYTDAQYQQLAAVTRALIDCYPDIAKNMTGHCDIAPDRKTDPGPAFDWARFRVLVSKETT
total protein half-life in vivo [1]: 5.19 ± 0.54 h
total protein half-life in vivo [2]: 3.72 h
total protein half-life in vivo [3]: 3.07 ± 0.013 h
total protein half-life in vivo [4]: 3.75 ± 0.89 h
total protein half-life in vivo [5]: 2.96 ± 0.27 h
total protein half-life in vivo [6]: 3.18 ± 0.31 h
total protein half-life in vivo [7]: 4.11 ± 0.3 h
total protein half-life in vivo [8]: 7.89 ± 1.5 h
total protein half-life in vivo [9]: 2.88 ± 0.77 h
total protein half-life in vivo [10]: 5.25 ± 0.51 h
total protein half-life in vivo [11]: 4.46 ± 0.12 h
total protein half-life in vivo [12]: 9.44 ± 0.099 h

MTLLGTALRPAATRVMLLGSGELGKEVAIECQRLGVEVIAVDRYADAPAMHVAHRSHVINMLDGDALRRVVELEKPHYIVPEIEAIATDMLIQLEEEGLNVVPCARATKLTMNREGIRRLAAEELQLPTSTYRFADSESLFREAVADIGYPCIVKPVMSSSGKGQTFIRSAEQLAQAWKYAQQGGRAGAGRVIVEGVVKFDFEITLLTVSAVDGVHFCAPVGHRQEDGDYRESWQPQQMSPLALERAQEIARKVVLALGGYGLFGVELFVCGDEVIFSEVSPRPHDTGMVTLISQDLSEFALHVRAFLGLPVGGIRQYGPAASAVILPQLTSQNVTFDNVQNAVGADLQIRLFGKPEIDGSRRLGVALATAESVVDAIERAKHAAGQVKVQG
total protein half-life in vivo [1]: 5.17 ± 0.51 h
total protein half-life in vivo [2]: 4.76 ± 0.66 h
total protein half-life in vivo [3]: 4.361 ± 0.017 h
total protein half-life in vivo [4]: 4.5 ± 0.32 h
total protein half-life in vivo [5]: 4.11 ± 0.3 h
total protein half-life in vivo [6]: 3.033 ± 0.014 h
total protein half-life in vivo [7]: 5.96 ± 0.31 h
total protein half-life in vivo [8]: 10.2 ± 0.59 h
total protein half-life in vivo [9]: 4.28 ± 0.2 h
total protein half-life in vivo [10]: 6.95 ± 0.21 h
total protein half-life in vivo [11]: 6.14 ± 0.1 h
total protein half-life in vivo [12]: 10.1 ± 0.19 h

MTKLQLKYRELKIISVIAASENISHAATVLGIAQANVSKYLADFESKVGLKVFDRTTRQLMLTPFGTALLPYINDMLDRNEQLNNFIADYKHEKRGRVTIYAPTGIITYLSKHVIDKIKDIGDITLSLKTCNLERNAFYEGVEFPDDCDVLISYAPPKDESLVASFITQYAVTAYASQRYLEKHPISRPDELEHHSCILIDSMMIDDANIWRFNVAGSKEVRDYRVKGNYVCDNTQSALELARNHLGIVFAPDKSVQSDLQDGTLVPCFQQPYEWWLDLVAIFRKREYQPWRVQYVLDEMLREIRHQLAQSQQLRPEQAAESED
total protein half-life in vivo [1]: 5.588 ± 0.0059 h
total protein half-life in vivo [2]: 5.07 ± 0.4 h
total protein half-life in vivo [3]: 4.7 ± 0.45 h
total protein half-life in vivo [4]: 4.98 ± 0.36 h
total protein half-life in vivo [5]: 4.54 ± 0.47 h
total protein half-life in vivo [6]: 2.74 ± 0.18 h
total protein half-life in vivo [8]: 10.9 ± 2 h
total protein half-life in vivo [9]: 4.15 ± 0.18 h
total protein half-life in vivo [10]: 7.04 ± 0.43 h
total protein half-life in vivo [11]: 6.03 ± 0.88 h
total protein half-life in vivo [12]: 10.1 ± 0.15 h
